Measured values from US20200291391A1, “CROSS-LINKED EPITOPES AND METHODS OF USE THEREOF” (Indi Molecular, Inc., priority 2019, published 2020).

Target: human CD8α/β (human), P01732
Assay: ELISA on CD8αβ

Chain of human CD8α/β (human), P01732 (P01732 22-182, chain 1 of 2): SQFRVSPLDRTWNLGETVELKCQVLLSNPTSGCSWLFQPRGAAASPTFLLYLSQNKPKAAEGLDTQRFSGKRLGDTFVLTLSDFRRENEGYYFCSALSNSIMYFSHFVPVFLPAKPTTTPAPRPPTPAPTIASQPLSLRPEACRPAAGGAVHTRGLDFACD
Chain of human CD8α/β (human), P01732 (P10966 22-170, chain 2 of 2, further chain): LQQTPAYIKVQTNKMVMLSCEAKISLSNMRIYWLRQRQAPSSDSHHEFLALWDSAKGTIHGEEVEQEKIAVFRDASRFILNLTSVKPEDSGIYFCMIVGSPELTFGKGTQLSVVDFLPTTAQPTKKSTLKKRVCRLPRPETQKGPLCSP

- EC50: 6 µM
Binder: KHYTN (modifications not checked) [khytn (SEQ ID NO:82)]
